The term Kd denotes a measure of binding affinity in units of concentration. Low values mean a tighter complex, high ones a looser complex.

Data set [1] deals with the molecule itself. The experiment in a line: preparative Superdex200 gel filtration, self-association. In general terms: Size exclusion chromatography separates by hydrodynamic size, large species first.
Data set [2] addresses T1, ALEXA FLUOR 488-labeled wild type mouse GAC (glutaminase C, residues 72-603) (mouse, UniProt D3Z7P3 72-555, ALEXA FLUOR 488 succinimidyl ester covalently attached to a lysine amino group within the glutaminase domain (exact residue not given)).
T1 construct: Recombinant from pET23a with an N-terminal His-tag and thrombin site; The tag was cleaved with thrombin; The oligomeric state (monomer/dimer/tetramer) depends on concentration
T1 sequence: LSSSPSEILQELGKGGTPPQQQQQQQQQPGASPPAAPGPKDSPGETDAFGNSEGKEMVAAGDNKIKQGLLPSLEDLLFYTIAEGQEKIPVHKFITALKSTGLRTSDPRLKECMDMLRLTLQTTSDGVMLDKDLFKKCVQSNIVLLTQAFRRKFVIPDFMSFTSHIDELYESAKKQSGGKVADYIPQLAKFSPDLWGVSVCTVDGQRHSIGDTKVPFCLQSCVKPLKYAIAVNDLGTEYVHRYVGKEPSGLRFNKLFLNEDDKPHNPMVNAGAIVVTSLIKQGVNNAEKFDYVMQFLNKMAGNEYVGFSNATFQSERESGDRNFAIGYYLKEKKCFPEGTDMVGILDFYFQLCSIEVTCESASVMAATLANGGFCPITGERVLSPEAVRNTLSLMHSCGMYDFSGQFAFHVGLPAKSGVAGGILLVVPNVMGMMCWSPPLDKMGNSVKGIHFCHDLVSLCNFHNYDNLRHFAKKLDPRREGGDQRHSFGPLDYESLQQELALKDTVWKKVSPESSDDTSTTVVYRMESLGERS
Description: FRET time course: 200 nM QSY 9-labeled GAC added to 20 nM 488-WT-GAC. How it is done:
Upon elution, light scattering data was collected and then used to calculate the molecular weight and polydispersity for the species eluted (right axis). Reference lines for the molecular weights of the monomer, dimer, and tetramer forms of GAC are included at 58 kD, 116 kD, and 230 kD respectively. […] In FIG. 4F, WT GAC and GAC mutants were titrated and added to an assay of 20 mM glutamine in the absence of phosphate to show no concentration dependent activation was observed of purified GAC mutants.
Fluorescence experiments were performed using a Varian Carry Eclipse Fluorometer in the counting mode. Excitation and emission wavelengths were 490 and 520 nm, respectively. Experiments were all prepared as one-mL samples and stirred continuously at 20° C. in 50 mM Tris-Acetate pH 8.5, 0.1 mM ethylenediaminetetraacetic acid (EDTA). […] Both BPTES and 968 were prepared in DMSO, and appropriate dilutions were made so that less than 2% (v/v) DMSO was added to an experimental sample.

The target in data set [3] is T2, ALEXA FLUOR 488-labeled mouse GAC D391K (constitutive dimer mutant) (mouse, UniProt D3Z7P3 72-555, ALEXA FLUOR 488 succinimidyl ester covalently attached to a lysine amino group within the glutaminase domain (exact residue not given)).
T2 sequence: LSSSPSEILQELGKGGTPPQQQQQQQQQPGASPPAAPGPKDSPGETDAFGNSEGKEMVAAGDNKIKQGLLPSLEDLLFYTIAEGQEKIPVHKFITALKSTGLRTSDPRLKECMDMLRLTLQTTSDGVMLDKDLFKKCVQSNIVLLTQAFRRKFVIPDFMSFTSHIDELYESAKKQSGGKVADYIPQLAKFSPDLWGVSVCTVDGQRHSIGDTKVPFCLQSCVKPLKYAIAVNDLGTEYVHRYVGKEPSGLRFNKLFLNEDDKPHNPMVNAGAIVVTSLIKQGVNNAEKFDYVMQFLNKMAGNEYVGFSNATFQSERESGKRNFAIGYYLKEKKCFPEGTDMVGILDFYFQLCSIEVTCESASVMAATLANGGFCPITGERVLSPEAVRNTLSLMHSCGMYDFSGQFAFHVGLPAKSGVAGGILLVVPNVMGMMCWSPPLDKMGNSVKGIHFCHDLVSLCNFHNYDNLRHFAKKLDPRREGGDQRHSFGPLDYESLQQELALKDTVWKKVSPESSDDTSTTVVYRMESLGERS
Description: FRET: 5 nM 488-D391K-GAC titrated with QSY 9-D391K-GAC, fit to a simple ligand binding equation; monomer-monomer association to a dimer. The text has this:
FIGS. 10A-B illustrate measuring of the monomer-monomer binding affinity. […] In FIG. 10B, FRET values from FIG. 10A were plotted in a sigma plot and fit to non-linear regression simple ligand binding equation (line).

Data set [4] deals with T3, ALEXA FLUOR 488-labeled wild type mouse KGA (kidney type glutaminase isoform 1, residues 72-674) (mouse, UniProt D3Z7P3 72-674, ALEXA FLUOR 488 succinimidyl ester covalently attached to a lysine amino group (exact residue not given)).
T3 construct: Recombinant; His-tag cleaved with thrombin
T3 sequence: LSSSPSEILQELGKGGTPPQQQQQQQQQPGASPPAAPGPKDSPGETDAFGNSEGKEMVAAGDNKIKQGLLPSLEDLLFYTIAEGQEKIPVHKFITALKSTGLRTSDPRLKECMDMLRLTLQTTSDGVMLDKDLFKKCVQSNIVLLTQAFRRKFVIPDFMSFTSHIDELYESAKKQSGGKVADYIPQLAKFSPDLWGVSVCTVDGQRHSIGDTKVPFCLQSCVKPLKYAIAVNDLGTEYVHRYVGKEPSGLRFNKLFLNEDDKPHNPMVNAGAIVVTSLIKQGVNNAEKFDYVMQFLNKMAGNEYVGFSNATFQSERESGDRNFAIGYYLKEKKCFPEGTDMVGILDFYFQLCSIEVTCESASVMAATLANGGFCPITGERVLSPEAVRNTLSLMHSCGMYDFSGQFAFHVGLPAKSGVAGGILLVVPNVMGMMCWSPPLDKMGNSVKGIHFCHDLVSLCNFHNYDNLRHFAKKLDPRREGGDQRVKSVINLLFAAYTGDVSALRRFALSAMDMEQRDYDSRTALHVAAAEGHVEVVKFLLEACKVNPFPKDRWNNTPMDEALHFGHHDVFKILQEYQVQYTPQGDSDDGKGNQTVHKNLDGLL
Description: FRET time course: quenching of 10 nM 488-KGA fluorescence by QSY 9-KGA, then 10-fold excess unlabeled WT-KGA [panel a]. The protocol: FIGS. 9A-B illustrate that the alternate splice variant KGA behaves like GAC in a FRET assay. […] After 5 minutes, the appropriate volume of 33.25 μM (for concentrations up to 200 nM labeled protein) or 69.5 μM (for concentrations above 200 nM labeled protein) unlabeled WT-KGA was added to make the final concentration of unlabeled KGA to be ten-times the concentration of labeled KGA.

B1: unlabeled mouse GAC K316E/D391K/R459E (constitutive monomer mutant) (enzyme)
chain: LSSSPSEILQELGKGGTPPQQQQQQQQQPGASPPAAPGPKDSPGETDAFGNSEGKEMVAAGDNKIKQGLLPSLEDLLFYTIAEGQEKIPVHKFITALKSTGLRTSDPRLKECMDMLRLTLQTTSDGVMLDKDLFKKCVQSNIVLLTQAFRRKFVIPDFMSFTSHIDELYESAKKQSGGKVADYIPQLAKFSPDLWGVSVCTVDGQRHSIGDTKVPFCLQSCVKPLKYAIAVNDLGTEYVHRYVGEEPSGLRFNKLFLNEDDKPHNPMVNAGAIVVTSLIKQGVNNAEKFDYVMQFLNKMAGNEYVGFSNATFQSERESGKRNFAIGYYLKEKKCFPEGTDMVGILDFYFQLCSIEVTCESASVMAATLANGGFCPITGERVLSPEAVENTLSLMHSCGMYDFSGQFAFHVGLPAKSGVAGGILLVVPNVMGMMCWSPPLDKMGNSVKGIHFCHDLVSLCNFHNYDNLRHFAKKLDPRREGGDQRHSFGPLDYESLQQELALKDTVWKKVSPESSDDTSTTVVYRMESLGERS
notes: also called K316E-D391K-R459E-GAC; monomeric GAC (K316E-D391K-R459E)
As for B1, the “concentration dependent activation (glutaminase activity, 20 mM glutamine, no phosphate)” value is “no concentration dependent activation was observed of purified GAC mutants”. Also, the binding result in data set [1] is recorded as “no binding”.

B2: QSY 9-labeled mouse GAC K316E/D391K/R459E (constitutive monomer mutant) (enzyme)
chain: LSSSPSEILQELGKGGTPPQQQQQQQQQPGASPPAAPGPKDSPGETDAFGNSEGKEMVAAGDNKIKQGLLPSLEDLLFYTIAEGQEKIPVHKFITALKSTGLRTSDPRLKECMDMLRLTLQTTSDGVMLDKDLFKKCVQSNIVLLTQAFRRKFVIPDFMSFTSHIDELYESAKKQSGGKVADYIPQLAKFSPDLWGVSVCTVDGQRHSIGDTKVPFCLQSCVKPLKYAIAVNDLGTEYVHRYVGEEPSGLRFNKLFLNEDDKPHNPMVNAGAIVVTSLIKQGVNNAEKFDYVMQFLNKMAGNEYVGFSNATFQSERESGKRNFAIGYYLKEKKCFPEGTDMVGILDFYFQLCSIEVTCESASVMAATLANGGFCPITGERVLSPEAVENTLSLMHSCGMYDFSGQFAFHVGLPAKSGVAGGILLVVPNVMGMMCWSPPLDKMGNSVKGIHFCHDLVSLCNFHNYDNLRHFAKKLDPRREGGDQRHSFGPLDYESLQQELALKDTVWKKVSPESSDDTSTTVVYRMESLGERS
modifications: QSY 9 succinimidyl ester covalently attached to a lysine amino group (exact residue not given)
notes: also called QSY 9-K316E-D391K-R459E; QSY 9-GAC (K316E, D391K, R459E) monomer mutant
As for B2, in data set [2], the binding result is “no binding (tested: 200 nM)”.

B3: QSY 9-labeled mouse GAC D391K (constitutive dimer mutant) (enzyme)
chain: LSSSPSEILQELGKGGTPPQQQQQQQQQPGASPPAAPGPKDSPGETDAFGNSEGKEMVAAGDNKIKQGLLPSLEDLLFYTIAEGQEKIPVHKFITALKSTGLRTSDPRLKECMDMLRLTLQTTSDGVMLDKDLFKKCVQSNIVLLTQAFRRKFVIPDFMSFTSHIDELYESAKKQSGGKVADYIPQLAKFSPDLWGVSVCTVDGQRHSIGDTKVPFCLQSCVKPLKYAIAVNDLGTEYVHRYVGKEPSGLRFNKLFLNEDDKPHNPMVNAGAIVVTSLIKQGVNNAEKFDYVMQFLNKMAGNEYVGFSNATFQSERESGKRNFAIGYYLKEKKCFPEGTDMVGILDFYFQLCSIEVTCESASVMAATLANGGFCPITGERVLSPEAVRNTLSLMHSCGMYDFSGQFAFHVGLPAKSGVAGGILLVVPNVMGMMCWSPPLDKMGNSVKGIHFCHDLVSLCNFHNYDNLRHFAKKLDPRREGGDQRHSFGPLDYESLQQELALKDTVWKKVSPESSDDTSTTVVYRMESLGERS
modifications: QSY 9 succinimidyl ester covalently attached to a lysine amino group (exact residue not given)
notes: also called QSY 9-D391K-GAC; QSY 9-GAC (D391K) dimer mutant
In the case of B3, binding in data set [3] was characterised by a dissociation constant (Kd) of 2.5 nM.

B4: QSY 9-labeled wild type mouse KGA (kidney type glutaminase isoform 1, residues 72-674) (enzyme)
chain: LSSSPSEILQELGKGGTPPQQQQQQQQQPGASPPAAPGPKDSPGETDAFGNSEGKEMVAAGDNKIKQGLLPSLEDLLFYTIAEGQEKIPVHKFITALKSTGLRTSDPRLKECMDMLRLTLQTTSDGVMLDKDLFKKCVQSNIVLLTQAFRRKFVIPDFMSFTSHIDELYESAKKQSGGKVADYIPQLAKFSPDLWGVSVCTVDGQRHSIGDTKVPFCLQSCVKPLKYAIAVNDLGTEYVHRYVGKEPSGLRFNKLFLNEDDKPHNPMVNAGAIVVTSLIKQGVNNAEKFDYVMQFLNKMAGNEYVGFSNATFQSERESGDRNFAIGYYLKEKKCFPEGTDMVGILDFYFQLCSIEVTCESASVMAATLANGGFCPITGERVLSPEAVRNTLSLMHSCGMYDFSGQFAFHVGLPAKSGVAGGILLVVPNVMGMMCWSPPLDKMGNSVKGIHFCHDLVSLCNFHNYDNLRHFAKKLDPRREGGDQRVKSVINLLFAAYTGDVSALRRFALSAMDMEQRDYDSRTALHVAAAEGHVEVVKFLLEACKVNPFPKDRWNNTPMDEALHFGHHDVFKILQEYQVQYTPQGDSDDGKGNQTVHKNLDGLL
modifications: QSY 9 succinimidyl ester covalently attached to a lysine amino group (exact residue not given)
notes: Recombinant; His-tag cleaved with thrombin; also called QSY 9-KGA
Take B4: the binding result in data set [4] was “binds”.
